Results taken from article PMC314469, “Protein Interaction Networks by Proteome Peptide Scanning” (PLoS Biology, 2004).

T1: Abp1 SH3 (ABP1_YEAST), P15891
T1 chain: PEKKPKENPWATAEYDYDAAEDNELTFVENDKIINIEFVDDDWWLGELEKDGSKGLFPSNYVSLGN


Target: T1, Abp1 SH3 (ABP1_YEAST), P15891
Experiment: SPOT array

Binder	normalised SPOT signal, Boehringer light units (BLU); mean over the file's lines of this peptide
SNMTFQYPGTTKP [YNL014W 670-682]	144
SNYITDRPFTRKP [YPR008W 490-502]	409
SQRSSDLPEWRRP [YJR035W 262-274]	377
SSIFEDHHITPSKP [YDR451C 284-297]	0
SRNFTLNYAFPIKP [YBL058W 387-400]	80.1
SNASVADAKEPSRP [YJR138W 1326-1339]	46
SPMRGVAPTASKP [YPL137C 250-262]	2700
SPDQWSVPAGHRP [YPR181C 246-258]	65.3
SNGAIQTGLQPLKP [YOR329C 434-447]	70.4
SPEENTDFALPMKP [YDR273W 125-138]	98.8
STMVTYLPPSSKP [YKL020C 555-567]	136
SSYAHKRSELPTRP [YNL139C 1440-1453]	201
SNIVSILPEGAKP [YKL015W 850-862]	106
SSGPSASHRGPRRP [YMR280C 1387-1400]	390
SSILHDLPRKVRP [YJL076W 1069-1081]	786
SQEVQRVPWDNKP [YGL114W 7-19]	86.2
SNRATLLTTLPMKP [YIL056W 426-439]	243
SNNVYSSEYHPIKP [YDL180W 227-240]	12.1
SRGRYGLPLSSRP [YDR419W 378-390]	327
STKPEKPPVVKKP [YNL106C 1109-1121]	13300
SSAIEDSPPDFKP [YBL054W 173-185]	85.8
SQATKSSPFRSRP [YKR089C 884-896]	1250
SRQAIPPPVPNRP [YLR144C 4-16]	2950
SMTTRSSHNDPIKP [YAL047C 42-55]	205

Now from value to binder:

normalised SPOT signal, Boehringer light units (BLU); mean over the file's lines of this peptide	Binder
347	SSSPKKGPLSIKP [YNL230C 233-245]
109	SREDRKNRAPPQRP [YER131W 88-101]
21.8	SPSPSPSPLNPYRP [YNL298W 398-411]
92.8	SNDDVEFYYPPVKP [YLR155C 216-229]
117	STIPDNHPVLNKP [YAL043C 192-204]
66.1	SPNEIFSPSYSKP [YGL092W 308-320]
95.4	SQSANLAPSNLRP [YER005W 601-613]
61.1	SNSSTAGLVAPLKP [YDR158W 154-167]
83.8	SNKTHTEQNNPPKP [YOR290C 408-421]
95.6	SNPAYDGPLFSKP [YNL307C 267-279]
104	SSPTKVASSSPLKP [YAL019W 19-32]
159	SSSSSPLENTPPRP [YML027W 280-293]
116	SLHWTGIPFLGKP [YCR025C 79-91]
89.3	STFLYRFPINGRP [YER019W 144-156]
209	SRKNSMSPTRKRP [YNL152W 392-404]
158	SPMLDAAPPTTKP [YER116C 142-154]
54.6	SPAKQKTPPSPAKP [YBR102C 22-35]
70.9	SSSSSILPSTPTRP [YPL202C 310-323]

normalised SPOT signal, Boehringer light units (BLU); mean over the file's lines of this peptide	Binder
119	STRAKGIAFHPSRP [YDL145C 11-24]
186	SLKFSLLNHHPYKP [YPR025C 204-217]
161	SSVSAHQPTQEKP [YGL008C 14-26]
118	SLLEFPLTDLPKKP [YLR047C 278-291]
69	SSTLKSNSSLPPKP [YGR178C 412-425]
129	SLTIPFLPVLPQKP [YDR178W 31-44]
329	SSSRSVVPILPKP [YER040W 495-507]
335	SSALMQGQKTPQKP [YLR079W 24-37]
34.3	SSTKVPEPPSWKP [YIL156W 492-504]
67200	STKKPRPPVKSKP [YOR367W 152-164]
96.8	STFSDHEPQHTKP [YBL054W 203-215]
130	STGGVKKPHRYKP [YBR010W 32-44]
0	SNGLLLEPSALRP [YOR023C 198-210]
37.9	SLPTSSSAKAPLRP [YOR266W 165-178]
114	SPFPADTPSSNRP [YGL201C 3-15]
238	SSTIKRYPSRYKP [YFR019W 125-137]
27.9	SLKLNSKPVELKP [YJL041W 617-629]
